# Measured values taken from patent US9605283B2, “Microorganism modified for the production of 1,3-propanediol” (INSTITUT NATIONAL DES SCIENCES APPLIQUÉES, priority 2012, dated 2017).
# Key:
# Format in all cases: biochemical
# [1] = DHB dehydrogenase activity of membrane-associated enzyme (DHB-dependent reduction of DCIP)
# Protocol: Activity of the membrane-associated DHB dehydrogenase (Ec-LldD) was assayed by following the DHB-dependent reduction of 2,6-dichloroindophenol (DCIP). (L)-2,4-dihydroxybutyrate+DCIPox→2-oxo-4-hydroxybutyrate+DCIPred Reaction scheme 2:
# Reactions were started by adding 20 mM (L)-2,4-dihydroxybutyrate (Rhodia).
# [2] = Lactate dehydrogenase activity (natural substrate); settings: for Max. specific activity, Natural substrate: natural substrate (L)-lactate, Table 2
# [3] = PDO dehydrogenase activity (PDO-dependent reduction of NADP); settings: 100 mM 1,3-propanediol, 10 mM NADP, 37° C., pH 8
# Protocol: PDO dehydrogenase activity was assayed by following the PDO-dependent reduction of NADP. 1,3-propanediol+NADP^+→3-hydroxypropional+NADPH Reaction scheme:
# Reactions were started by adding 100 mM 1,3-propanediol (PDO, Sigma).
# [4] = OHB decarboxylase activity (coupled to YqhD, NADPH); settings: for Effect of mutation on activity and/or specificity for OHB (in words): versus wild-type enzyme
# Protocol: (§1) OHB decarboxylase activity was assayed by coupling the decarboxylase activity to the NADPH-dependent reduction of the released 3-hydroxypropanal by purified aldehyde reductase, YqhD, from E. coli. The decarboxylation of pyruvate was coupled to the NADH-dependent reduction of acetaldehyde catalysed by yeast alcohol dehydrogenase. Branched-chain alpha-ketoacid decarboxylase activity was measured on 4-methyl-2-oxovaleric acid by coupling to the NADH-dependent reduction of 3-methylbutanal catalysed by horse liver alcohol dehydrogenase. […] Reactions were started by adding 20 mM 2-oxo-4-hydroxybutyrate (OHB), 10 mM 4-methyl-2-oxovaleric acid (MOV), or 5 mM pyruvate.
# [5] = Branched-chain alpha-ketoacid decarboxylase activity (coupled to horse liver alcohol dehydrogenase)
# Protocol: as §1
# [6] = Pyruvate decarboxylase activity (coupled to yeast alcohol dehydrogenase); settings: activity measured at 50 mM pyruvate (Pdc mutants); Table 10
# Protocol: OHB decarboxylase activity was assayed by coupling the decarboxylase activity to the NADPH-dependent reduction of the released 3-hydroxypropanal by purified aldehyde reductase, YqhD, from E. coli. The decarboxylation of pyruvate was coupled to the NADH-dependent reduction of acetaldehyde catalysed by yeast alcohol dehydrogenase. Branched-chain alpha-ketoacid decarboxylase activity was measured on 4-methyl-2-oxovaleric acid by coupling to the NADH-dependent reduction of 3-methylbutanal catalysed by horse liver alcohol dehydrogenase. […]
# [7] = DHB dehydrogenase activity of cytosolic enzymes (DHB-dependent reduction of NAD+)
# Protocol: Activity of the cytosolic DHB dehydrogenases (Ec-Mdh, Bs-Mdh, Ll-LdhA) was assayed by following the DHB-dependent reduction of NAD^+.
# The reaction mixture contained 60 mM Hepes (pH 8), 50 mM potassium chloride, 5 mM MgCl2, 10 mM NAD, (optionally, 5 mM fructose-1,6-bisphosphate (F16bP)) (all products from Sigma), and appropriate amounts of purified enzyme or cell extract. Reactions were started by adding 50 mM (L)-2,4-dihydroxybutyrate (Rhodia).
# All enzymatic assays were carried out at 37° C. in 96-well flat bottomed microtiter plates in a final volume of 250 μL. The reactions were followed by the characteristic absorption of NADH at 340 nm (εNADH=6.22 mM^−1 cm^−1) or the absorbtion of DCIP at 655 nm (εDCIP=5.9 mM^−1 cm^−1) in a microplate reader (BioRad 680XR).
# [8] = activity measured at 20 mM OHB, Table 10
# [9] = activity measured at 10 mM MOV (KdcA mutants), Table 10
molecule,measurement,setting,value
"Ec-LldD: membrane associated (L)-lactate dehydrogenase of E. coli, SEQ ID No. 122 (protein, listed as Escherichia coli) MIISAASDYRAAAQRILPPFLFHYMDGGAYSEYTLRRNVEDLSEVALRQRILKNMSDLSLETTLFNEKLSMPVALAPVGLCGMYARRGEVQAAKAADAHGIPFTLSTVSVCPIEEVAPAIKRPMWFQLYVLRDRGFMRNALERAKAAGCSTLVFTVDMPTPGARYRDAHSGMSGPNAAMRRYLQAVTHPQWAWDVGLNGRPHDLGNISAYLGKPTGLEDYIGWLGNNFDPSISWKDLEWIRDFWDGPMVIKGILDPEDARDAVRFGADGIVVSNHGGRQLDGVLSSARALPAIADAVKGDIAILADSGIRNGLDVVRMIALGADTVLLGRAFLYALATAGQAGVANLLNLIEKEMKVAMTLTGAKSISEITQDSLVQGLGKELPAALAPMAKGNAA",Specificity,"[1]; (Vmax/Km)DHB/(Vmax/Km)nat. substrate, natural substrate lactate",0.006
same,"Max. specific activity, DHB","[1]; DCIP assay, Table 2",0.37 µmol/mg/min
same,"Max. specific activity, DHB","[1]; E. coli LldD, Table 6",0.37 µmol/mg/min
same,DHB dehydrogenase activity (in words),[1]; membrane-associated enzyme,have DHB dehydrogenase activity
same,"Max. specific activity, lactate","[2]; E. coli LldD, Table 6",6.22 µmol/mg/min
same,"Max. specific activity, Natural substrate",[2],6.22 µmol/mg/min
"Ec-YqhD: alcohol dehydrogenase yqhD from Escherichia coli, used as PDO dehydrogenase (protein, UniProt Q46856 1-387, looked up) NADPH-dependent aldehyde …: MNNFNLHTPTRILFGKGAIAGLREQIPHDARVLITYGGGSVKKTGVLDQVLDALKGMDVLEFGGIEPNPAYETLMNAVKLVREQKVTFLLAVGGGSVLDGTKFIAAAANYPENIDPWHILQTGGKEIKSAIPMGCVLTLPATGSESNAGAVISRKTTGDKQAFHSAHVQPVFAVLDPVYTYTLPPRQVANGVVDAFVHTVEQYVTKPVDAKIQDRFAEGILLTLIEDGPKALKEPENYDVRANVMWAATQALNGLIGAGVPQDWATHMLGHELTAMHGLDHAQTLAIVLPALWNEKRDTKRAKLLQYAERVWNITEGSDDERIDAAIAATRNFFEQLGVPTHLSDYGLDGSSIPALLKKLEEHGMTQLGENHDITLDVSRRIYEAAR",PDO dehydrogenase activity,[3],0.15 µmol/min/mg
"Ll-KdcA: branched-chain alpha-ketoacid decarboxylase from L. lactis, SEQ ID No. 130 (protein, listed as Lactococcus lactis) MYTVGDYLLDRLHELGIEEIFGVPGDYNLQFLDQIISREDMKWIGNANELNASYMADGYARTKKAAAFLTTFGVGELSAINGLAGSYAENLPVVEIVGSPTSKVQNDGKFVHHTLADGDFKHFMKMHEPVTAARTLLTAENATYEIDRVLSQLLKERKPVYINLPVDVAAAKAEKPALSLEKESSTTNTTEQVILSKIEESLKNAQKPVVIAGHEVISFGLEKTVTQFVSETKLPITTLNFGKSAVDESLPSFLGIYNGKLSEISLKNFVESADFILMLGVKLTDSSTGAFTHHLDENKMISLNIDEGIIFNKVVEDFDFRAVVSSLSELKGIEYEGQYIDKQYEEFIPSSAPLSQDRLWQAVESLTQSNETIVAEQGTSFFGASTIFLKSNSRFIGQPLWGSIGYTFPAALGSQIADKESRHLLFIGDGSLQLTVQELGLSIREKLNPICFIINNDGYTVEREIHGPTQSYNDIPMWNYSKLPETFGATEDRVVSKIVRTENEFVSVMKEAQADVNRMYWIELVLEKEDAPKLLKKMGKLFAEQNK","Max. specific activity, OHB","[4]; when not saturated, activity estimated at 20 mM substrate, Table 8",0.08 µmol/mg/min
same,OHB decarboxylase activity (in words),[4]; wild-type enzymes,significant OHB decarboxylase activity
same,"Max. specific activity, Natural substrate","[5]; natural substrate 4-methyl-2-oxovaleric, Table 8",4 µmol/mg/min
"Ll-KdcA V461I: L. lactis KdcA mutant V461I, SEQ ID No. 198 (protein, listed as Lactococcus lactis) MYTVGDYLLDRLHELGIEEIFGVPGDYNLQFLDQIISREDMKWIGNANELNASYMADGYARTKKAAAFLTTFGVGELSAINGLAGSYAENLPVVEIVGSPTSKVQNDGKFVHHTLADGDFKHFMKMHEPVTAARTLLTAENATYEIDRVLSQLLKERKPVYINLPVDVAAAKAEKPALSLEKESSTTNTTEQVILSKIEESLKNAQKPVVIAGHEVISFGLEKTVTQFVSETKLPITTLNFGKSAVDESLPSFLGIYNGKLSEISLKNFVESADFILMLGVKLTDSSTGAFTHHLDENKMISLNIDEGIIFNKVVEDFDFRAVVSSLSELKGIEYEGQYIDKQYEEFIPSSAPLSQDRLWQAVESLTQSNETIVAEQGTSFFGASTIFLKSNSRFIGQPLWGSIGYTFPAALGSQIADKESRHLLFIGDGSLQLTVQELGLSIREKLNPICFIINNDGYTIEREIHGPTQSYNDIPMWNYSKLPETFGATEDRVVSKIVRTENEFVSVMKEAQADVNRMYWIELVLEKEDAPKLLKKMGKLFAEQNK","Max. specific activity, OHB",[4]; [8],0.24 µmol/mg/min
same,Effect of mutation on activity and/or specificity for OHB (in words),[4],increased activity and/or specificity for OHB
same,"Max. specific activity, Natural substrate",[5]; [9],2.76 µmol/mg/min
"Ll-KdcA G402S: L. lactis KdcA mutant G402S, SEQ ID No. 196 (protein, listed as Lactococcus lactis) MYTVGDYLLDRLHELGIEEIFGVPGDYNLQFLDQIISREDMKWIGNANELNASYMADGYARTKKAAAFLTTFGVGELSAINGLAGSYAENLPVVEIVGSPTSKVQNDGKFVHHTLADGDFKHFMKMHEPVTAARTLLTAENATYEIDRVLSQLLKERKPVYINLPVDVAAAKAEKPALSLEKESSTTNTTEQVILSKIEESLKNAQKPVVIAGHEVISFGLEKTVTQFVSETKLPITTLNFGKSAVDESLPSFLGIYNGKLSEISLKNFVESADFILMLGVKLTDSSTGAFTHHLDENKMISLNIDEGIIFNKVVEDFDFRAVVSSLSELKGIEYEGQYIDKQYEEFIPSSAPLSQDRLWQAVESLTQSNETIVAEQGTSFFGASTIFLKSNSRFIGQPLWSSIGYTFPAALGSQIADKESRHLLFIGDGSLQLTVQELGLSIREKLNPICFIINNDGYTVEREIHGPTQSYNDIPMWNYSKLPETFGATEDRVVSKIVRTENEFVSVMKEAQADVNRMYWIELVLEKEDAPKLLKKMGKLFAEQNK","Max. specific activity, OHB",[4]; [8],0.09 µmol/mg/min
same,Effect of mutation on activity and/or specificity for OHB (in words),[4],increased activity and/or specificity for OHB
same,"Max. specific activity, Natural substrate",[5]; [9],3.1 µmol/mg/min
"Zm-Pdc G413N: Z. mobilis pyruvate decarboxylase mutant G413N, SEQ ID No. 194 (protein, listed as Zymomonas mobilis) MSYTVGTYLAERLVQIGLKHHFAVAGDYNLVLLDNLLLNKNMEQVYCCNELNCGFSAEGYARAKGAAAAVVTYSVGALSAFDAIGGAYAENLPVILISGAPNNNDHAAGHVLHHALGKTDYHYQLEMAKNITAAAEAIYTPEEAPAKIDHVIKTALREKKPVYLEIACNIASMPCAAPGPASALFNDEASDEASLNAAVEETLKFIANRDKVAVLVGSKLRAAGAEEAAVKFADALGGAVATMAAAKSFFPEENPHYIGTSWGEVSYPGVEKTMKEADAVIALAPVFNDYSTTGWTDIPDPKKLVLAEPRSVVVNGIRFPSVHLKDYLTRLAQKVSKKTGALDFFKSLNAGELKKAAPADPSAPLVNAEIARQVEALLTPNTTVIAETGDSWFNAQRMKLPNGARVEYEMQWNHIGWSVPAAFGYAVGAPERRNILMVGDGSFQLTAQEVAQMVRLKLPVIIFLINNYGYTIEVMIHDGPYNNIKNWDYAGLMEVFNGNGGYDSGAGKGLKAKTGGELAEAIKVALANTDGPTLIECFIGREDCTEELVKWGKRVAAANSRKPVNKLL","Max. specific activity, OHB",[4]; [8],0.04 µmol/mg/min
same,Effect of mutation on activity and/or specificity for OHB (in words),[4],increased activity and/or specificity for OHB
same,"Max. specific activity, Natural substrate",[6],0.1 µmol/mg/min
"Ll-LdhA: (L)-lactate dehydrogenase of Lactococcus lactis, cytosolic, SEQ ID No. 120 (protein, listed as Lactococcus lactis) MADKQRKKVILVGDGAVGSSYAFALVNQGIAQELGIVDLFKEKTQGDAEDLSHALAFTSPKKIYSADYSDASDADLVVLTSGAPQKPGETRLDLVEKNLRITKDVVTKIVASGFKGIFLVAANPVDILTYATWKFSGFPKNRVVGSGTSLDTARFRQALAEKVDVDARSIHAYIMGEHGDSEFAVWSHANVAGVKLEQWFQENDYLNEAEIVELFESVRDAAYSIIAKKGATFYGVAVALARITKAILDDEHAVLPVSVFQDGQYGVSDCYLGQPAVVGAEGVVNPIHIPLNDAEMQKMEASGAQLKAIIDEAFAKEEFASAVKN",DHB dehydrogenase activity (in words),[7]; cytosolic wild-type enzymes,have DHB dehydrogenase activity
same,"Max. specific activity, DHB","[7]; when not saturated, activity estimated at 50 mM substrate, Table 2",1 µmol/mg/min
same,"Max. specific activity, Natural substrate",[2],8.8 µmol/mg/min
